For four substances, Kd results are on record in article PMC7998035.

Holding throughout (assay): ELISA; ECM protein coated on the plate (100 nM in PBS, 1 h, 37 °C), blocked with 1% BSA in PBS-T; IL-1Ra or PDGF-BB variants at 0 to 100 nM in PBS-T with 0.1% BSA, 1 h, room temperature; bound protein detected with biotinylated antibodies (DuoSet); specific binding fitted with a one site-specific binding model; means of 3 independent experiments
(In general: In an ELISA, binding on a coated surface is turned into a signal by an enzyme label.)

One assay addresses human tenascin C (human) (UniProt P24821).
The target of assay [1] is human vitronectin (human) (UniProt P04004).
The target in assay [2] is human plasma fibronectin (human).
human plasma fibronectin (human), sequence (P02751 other isoform, or with tags, fused parts or gaps): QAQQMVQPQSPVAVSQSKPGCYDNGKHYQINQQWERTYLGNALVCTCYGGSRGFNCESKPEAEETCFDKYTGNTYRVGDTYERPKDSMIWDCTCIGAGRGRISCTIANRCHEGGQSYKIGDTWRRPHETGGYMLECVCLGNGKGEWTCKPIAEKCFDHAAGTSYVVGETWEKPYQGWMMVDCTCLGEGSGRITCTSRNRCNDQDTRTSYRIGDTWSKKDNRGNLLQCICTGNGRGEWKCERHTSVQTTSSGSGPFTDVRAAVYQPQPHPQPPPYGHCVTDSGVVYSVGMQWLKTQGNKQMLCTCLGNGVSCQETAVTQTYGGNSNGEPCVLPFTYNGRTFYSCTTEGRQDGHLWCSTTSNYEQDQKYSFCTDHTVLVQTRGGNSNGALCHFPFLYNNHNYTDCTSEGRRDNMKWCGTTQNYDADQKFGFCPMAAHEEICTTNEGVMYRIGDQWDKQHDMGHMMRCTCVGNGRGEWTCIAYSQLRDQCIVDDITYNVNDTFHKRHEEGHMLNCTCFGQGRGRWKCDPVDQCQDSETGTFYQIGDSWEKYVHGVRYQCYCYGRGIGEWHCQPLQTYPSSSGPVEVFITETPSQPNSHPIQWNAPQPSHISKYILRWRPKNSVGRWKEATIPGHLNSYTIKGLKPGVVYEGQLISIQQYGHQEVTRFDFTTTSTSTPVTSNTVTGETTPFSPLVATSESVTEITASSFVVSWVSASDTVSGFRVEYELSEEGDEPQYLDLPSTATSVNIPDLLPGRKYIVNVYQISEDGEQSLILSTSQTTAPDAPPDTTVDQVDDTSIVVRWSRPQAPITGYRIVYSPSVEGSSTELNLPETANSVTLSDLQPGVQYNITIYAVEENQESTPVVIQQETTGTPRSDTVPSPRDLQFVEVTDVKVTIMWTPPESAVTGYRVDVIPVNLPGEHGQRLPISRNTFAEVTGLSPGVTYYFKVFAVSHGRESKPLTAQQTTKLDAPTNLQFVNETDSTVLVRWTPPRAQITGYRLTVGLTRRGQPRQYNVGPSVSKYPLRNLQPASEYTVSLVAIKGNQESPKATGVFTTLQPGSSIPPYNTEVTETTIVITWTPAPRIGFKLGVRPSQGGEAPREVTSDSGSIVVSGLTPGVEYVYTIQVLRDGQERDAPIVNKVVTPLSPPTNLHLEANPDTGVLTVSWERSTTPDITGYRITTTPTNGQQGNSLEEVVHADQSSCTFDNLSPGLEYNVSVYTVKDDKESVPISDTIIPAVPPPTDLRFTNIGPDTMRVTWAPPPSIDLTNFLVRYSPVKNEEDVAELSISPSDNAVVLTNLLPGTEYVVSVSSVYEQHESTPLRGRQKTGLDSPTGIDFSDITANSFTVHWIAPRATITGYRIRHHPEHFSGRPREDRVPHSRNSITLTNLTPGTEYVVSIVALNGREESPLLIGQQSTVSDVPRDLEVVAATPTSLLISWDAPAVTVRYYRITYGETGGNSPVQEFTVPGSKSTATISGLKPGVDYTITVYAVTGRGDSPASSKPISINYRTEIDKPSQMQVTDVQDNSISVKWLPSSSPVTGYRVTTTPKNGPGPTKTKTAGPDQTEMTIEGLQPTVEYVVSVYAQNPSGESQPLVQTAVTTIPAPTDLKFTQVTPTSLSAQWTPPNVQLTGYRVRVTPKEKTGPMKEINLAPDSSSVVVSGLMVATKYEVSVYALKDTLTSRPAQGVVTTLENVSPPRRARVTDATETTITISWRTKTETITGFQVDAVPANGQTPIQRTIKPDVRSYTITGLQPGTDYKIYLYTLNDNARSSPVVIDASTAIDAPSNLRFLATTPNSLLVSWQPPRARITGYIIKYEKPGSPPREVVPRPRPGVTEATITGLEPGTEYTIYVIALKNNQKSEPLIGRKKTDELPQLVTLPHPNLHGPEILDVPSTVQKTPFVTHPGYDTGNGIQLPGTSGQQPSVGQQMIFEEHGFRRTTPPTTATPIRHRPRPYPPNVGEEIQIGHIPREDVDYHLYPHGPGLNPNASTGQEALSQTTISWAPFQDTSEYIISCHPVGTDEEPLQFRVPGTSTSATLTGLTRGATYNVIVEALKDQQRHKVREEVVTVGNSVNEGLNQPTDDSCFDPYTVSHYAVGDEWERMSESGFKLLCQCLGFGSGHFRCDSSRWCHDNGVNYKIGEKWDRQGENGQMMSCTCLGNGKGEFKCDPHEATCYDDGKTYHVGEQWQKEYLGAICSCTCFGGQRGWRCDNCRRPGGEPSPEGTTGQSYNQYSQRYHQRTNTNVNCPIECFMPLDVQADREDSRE

human tenascin C (human), sequence (P24821 23-2201): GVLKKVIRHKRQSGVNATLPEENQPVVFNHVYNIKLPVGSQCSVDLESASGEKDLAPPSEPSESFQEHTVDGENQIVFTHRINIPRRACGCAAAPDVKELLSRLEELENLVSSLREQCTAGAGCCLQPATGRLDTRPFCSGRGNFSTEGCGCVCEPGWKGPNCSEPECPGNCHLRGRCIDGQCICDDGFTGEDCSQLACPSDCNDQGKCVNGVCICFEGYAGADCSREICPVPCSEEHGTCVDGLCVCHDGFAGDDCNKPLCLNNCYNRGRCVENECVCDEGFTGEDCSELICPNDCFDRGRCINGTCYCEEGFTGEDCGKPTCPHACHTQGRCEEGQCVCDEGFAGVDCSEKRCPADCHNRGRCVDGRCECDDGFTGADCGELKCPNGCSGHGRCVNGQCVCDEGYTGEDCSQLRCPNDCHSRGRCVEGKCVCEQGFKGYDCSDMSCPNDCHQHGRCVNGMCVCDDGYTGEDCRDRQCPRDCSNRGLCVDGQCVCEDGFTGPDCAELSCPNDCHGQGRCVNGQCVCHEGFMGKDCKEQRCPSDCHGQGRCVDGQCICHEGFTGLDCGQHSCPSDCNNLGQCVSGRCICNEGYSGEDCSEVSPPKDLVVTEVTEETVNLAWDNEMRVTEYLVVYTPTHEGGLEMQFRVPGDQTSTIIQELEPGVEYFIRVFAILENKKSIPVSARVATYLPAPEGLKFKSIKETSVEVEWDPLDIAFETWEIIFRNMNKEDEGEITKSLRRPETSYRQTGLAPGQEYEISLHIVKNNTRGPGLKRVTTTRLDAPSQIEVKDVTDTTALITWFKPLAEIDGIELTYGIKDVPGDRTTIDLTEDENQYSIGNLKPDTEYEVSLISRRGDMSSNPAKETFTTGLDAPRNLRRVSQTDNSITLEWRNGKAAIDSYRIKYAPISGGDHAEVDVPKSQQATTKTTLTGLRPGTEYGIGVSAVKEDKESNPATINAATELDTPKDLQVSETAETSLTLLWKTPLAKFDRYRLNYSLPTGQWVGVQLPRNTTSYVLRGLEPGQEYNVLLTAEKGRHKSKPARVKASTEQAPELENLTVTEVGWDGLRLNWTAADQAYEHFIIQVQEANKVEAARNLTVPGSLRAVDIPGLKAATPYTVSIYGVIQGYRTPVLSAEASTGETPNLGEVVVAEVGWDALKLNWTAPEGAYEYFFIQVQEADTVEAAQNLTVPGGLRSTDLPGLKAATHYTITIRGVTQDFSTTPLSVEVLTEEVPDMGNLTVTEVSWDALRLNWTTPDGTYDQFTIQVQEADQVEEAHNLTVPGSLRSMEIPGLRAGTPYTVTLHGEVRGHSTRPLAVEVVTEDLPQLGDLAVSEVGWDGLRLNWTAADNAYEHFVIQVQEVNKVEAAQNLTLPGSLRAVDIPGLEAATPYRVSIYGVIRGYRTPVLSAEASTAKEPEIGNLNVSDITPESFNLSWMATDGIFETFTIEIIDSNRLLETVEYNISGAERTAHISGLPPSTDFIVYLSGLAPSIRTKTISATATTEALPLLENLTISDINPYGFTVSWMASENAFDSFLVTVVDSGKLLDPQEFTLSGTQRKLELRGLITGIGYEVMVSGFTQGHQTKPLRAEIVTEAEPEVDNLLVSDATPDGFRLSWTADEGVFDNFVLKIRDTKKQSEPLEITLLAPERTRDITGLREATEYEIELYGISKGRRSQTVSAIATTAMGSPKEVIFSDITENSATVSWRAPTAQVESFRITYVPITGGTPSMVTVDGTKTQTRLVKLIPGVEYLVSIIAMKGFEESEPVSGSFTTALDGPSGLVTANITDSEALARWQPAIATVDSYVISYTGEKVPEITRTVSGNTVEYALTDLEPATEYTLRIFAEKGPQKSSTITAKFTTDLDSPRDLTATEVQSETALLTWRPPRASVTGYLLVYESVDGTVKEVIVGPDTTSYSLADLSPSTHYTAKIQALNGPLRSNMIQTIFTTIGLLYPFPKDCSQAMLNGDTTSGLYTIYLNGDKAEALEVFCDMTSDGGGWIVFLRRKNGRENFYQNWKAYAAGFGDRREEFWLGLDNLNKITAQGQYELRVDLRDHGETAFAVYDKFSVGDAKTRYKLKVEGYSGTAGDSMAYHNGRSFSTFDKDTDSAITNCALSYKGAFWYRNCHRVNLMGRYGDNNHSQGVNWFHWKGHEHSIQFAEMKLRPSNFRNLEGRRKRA
human vitronectin (human), sequence (P04004 20-478): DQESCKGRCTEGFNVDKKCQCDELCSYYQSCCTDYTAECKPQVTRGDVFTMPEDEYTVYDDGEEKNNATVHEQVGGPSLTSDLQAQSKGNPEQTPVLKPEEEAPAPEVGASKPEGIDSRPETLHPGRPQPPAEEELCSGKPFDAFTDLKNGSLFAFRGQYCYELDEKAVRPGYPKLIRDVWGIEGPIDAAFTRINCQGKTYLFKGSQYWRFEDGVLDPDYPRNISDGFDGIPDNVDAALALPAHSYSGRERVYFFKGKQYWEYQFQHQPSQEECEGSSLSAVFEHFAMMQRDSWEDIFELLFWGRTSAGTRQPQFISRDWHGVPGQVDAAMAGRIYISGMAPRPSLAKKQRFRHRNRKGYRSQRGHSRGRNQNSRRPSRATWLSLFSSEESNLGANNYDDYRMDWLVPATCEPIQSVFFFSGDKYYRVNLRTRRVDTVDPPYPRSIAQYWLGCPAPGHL

The term Kd denotes a measure of binding affinity in units of concentration. A high value points to a looser complex. Turning to IL-1Ra/PlGF123-141, the Kd was found to be 20.3 nM with human tenascin C (human) and 0.7 nM in assay [1].
In assay [2], “IL-1Ra/PlGF123-141 (other; other documents disagree on this pair)” yielded a Kd of 21.9 nM.
Regarding PDGF-BB/PlGF123-141, the dissociation constant (Kd) in the assay with human tenascin C (human) was 25 nM; in assay [1], 1.4 nM.
As for “PDGF-BB/PlGF123-141 (other; other documents disagree on this pair)”, the dissociation constant (Kd) in assay [2] came to 17.7 nM.
